Our source for the Kd values is PMC5692602.

This test addresses ^15N-labeled intersectin 1-SH3A domain (UniProt Q15811). Description: NMR titration.
UniProt Q15811, sequence (Q15811 740-806): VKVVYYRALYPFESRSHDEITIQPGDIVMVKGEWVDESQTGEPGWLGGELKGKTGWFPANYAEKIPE

Substance “SH3A–B interdomain linker-derived peptide of intersectin 1, T832 and T839 phosphorylated” yielded a Kd of 793 µM. As for “SH3A–B interdomain linker-derived peptide of intersectin 1, dephosphorylated”, the figure is 275 µM.
